Measurements: PMC4014539, “PEG-Protein Interaction Induced Contraction of NalD Chains” (PLoS ONE, 2014)

Target: the molecule itself
Assay: AUC; Beckman Optima XL-I, UV detection at 280 nm, 45,000 rpm, 20°C; NalD in aqueous solution before addition of PEG3350; apparent molar masses from peak positions

B1: NalD (natural protein)
chain: MRRTKEDSEKTRTAILLAAEELFLEKGVSHTSLEQIARAAGVTRGAVYWHFQNKAHLFNEMLNQVRLPPEQLTERLSGCDGSDPLRSLYDLCLEAVQSLLTQEKKRRILTILMQRCEFTEELREAQERNNAFVQMFIELCEQLFARDECRVRLHPGMTPRIASRALHALILGLFNDWLRDPRLFDPDTDAEHLLEPMFRGLVRDWGQASSAP
notes: NalD, TetR family repressor of the MexAB-OprM multi-drug efflux operon, Pseudomonas aeruginosa PAO1; a protein of 212 amino acids; nalD gene amplified by PCR and cloned into PET-30a between NdeI and XhoI; also called NalD protein; regulator of MexAB-OprM multi-drug efflux systems; source: E. coli BL21 star (DE3), purified (SFF, Heparin, Ni-NTA, monoQ columns)
  binding result: binds
